Assay results as given in doi:10.1101/2024.05.17.594718 (bioRxiv, 2024).

Target: LysP-GFP (Pseudomonas aeruginosa PAO1 LysP fused to GFP-His8) (Pseudomonas aeruginosa strain PAO1, UniProt Q9HVG3)
Test: GFP thermal shift

B1: nanobody Nb5755 (VHH)
VHH: QVQLQESGGGLVQGGSLRLSCAASGRTFSIYGMAWVRQASGKEREFVAAMPRGGGTTNYADSVKGRFSISRDNAKNTVDLQMNSLKPEDTAVYYCVADRGFTLRLGIQHDYWGQGTQVTVSS
increase in melting temperature: 20 °C
